Legend:
[1] = molecular target: T1, human B7H4 on the cell surface (human, UniProt Q7Z7D3 25-282); experiment: FACS, SK-BR-3 cells
T1 construct: whole, on cells; also called CHOK1/hu B7H4; B7H4 on SK-BR-3
T1 sequence (looked up): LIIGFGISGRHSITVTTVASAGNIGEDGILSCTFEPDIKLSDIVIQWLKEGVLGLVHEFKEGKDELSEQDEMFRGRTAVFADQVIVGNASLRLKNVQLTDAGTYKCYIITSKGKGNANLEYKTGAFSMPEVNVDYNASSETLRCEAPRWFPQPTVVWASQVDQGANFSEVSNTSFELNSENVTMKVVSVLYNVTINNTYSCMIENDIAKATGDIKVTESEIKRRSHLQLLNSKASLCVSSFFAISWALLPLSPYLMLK
Procedure: This example is intended to investigate the in vitro binding activity of anti-human B7H4 H2L2 monoclonal antibody to human/cynomolgus monkey/mouse B7H4. Antibody binding experiments at the cellular level were performed using CHOK1 cell line overexpressing human B7H4 (CHOK1/hu B7H4, Harbour BioMed), CHOK1 cell line overexpressing cynomolgus monkey B7H4 (CHOK1/cyno B7H4, Harbour BioMed), CHOK1 cell line overexpressing mouse B7H4 (CHOK1/m B7H4, Harbour BioMed) and SK-BR-3 cell line (ATCC® HTB-30) highly expressing human B7H4. Briefly, CHOK1/hu B7H4 cells, CHOK1/cyno B7H4 cells, CHOK1/m B7H4 cells or SK-BR-3 cells were digested and resuspended with PBS containing 2% BSA. The cell density was adjusted to 1×10⁶ cells/mL. The cells were seeded in a 96-well V-bottom plate (Corning, #3894) at 100 μL/well, followed by the addition of test antibodies diluted in a 3-fold concentration gradient of 2 times the final concentration, each at 100 μL/well. The cells were incubated at 4° C. for 2 h away from light. Thereafter, the cells in each well were rinsed twice with 100 μL of pre-cooled PBS containing 2% BSA, and centrifuged at 500 g at 4° C. for 5 min, and then the supernatant was discarded. Then 100 μL of a fluorescent secondary antibody (Alexa Fluor 488-conjugated AffiniPure Goat Anti-Human IgG, Fcγ Fragment Specific, Jackson, #109-545-098, 1:500 diluted) was added to each well. The plate was incubated away from light at 4° C. for 1 h. The cells in each well were washed twice with 100 μL of pre-cooled PBS containing 2% BSA, and centrifuged at 500 g at 4° C. for 5 minutes, and then the supernatant was discarded. Finally, the cells in each well were resuspended with 200 μL of pre-cooled PBS containing 2% BSA, and the fluorescence signal values were read using an ACEA Novocyte3000 flow cytometer.

[2] = molecular target: T2, B7-H4 (Acro Biosystems, #B74-H82E2) (UniProt Q7Z7D3 29-258); experiment: BLI epitope competition; 1st Ab = row; competitor (2nd Ab) Control antibody 2; inhibition of the 2nd Ab signal
T2 construct: Bought protein; also called B7-H4 captured on SA sensor
T2 sequence (looked up): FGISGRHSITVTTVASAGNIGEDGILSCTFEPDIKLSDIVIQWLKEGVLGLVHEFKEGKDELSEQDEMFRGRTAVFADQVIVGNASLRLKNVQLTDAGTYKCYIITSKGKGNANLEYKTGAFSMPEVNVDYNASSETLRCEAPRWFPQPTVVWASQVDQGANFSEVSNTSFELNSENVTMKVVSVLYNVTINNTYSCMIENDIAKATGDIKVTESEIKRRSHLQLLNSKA
Procedure: (§1) Step one, acquisition of 100% signal of antibodies: B7-H4 (Acro Biosystems, #B74-H82E2-200 μg) was captured at a capture height of 0.25 nm using an SA sensor (Fortebio, #18-5019). The sensor was equilibrated in a buffer for 120 s and then immersed in each antibody diluted to 100 nM for 240 s, and the final signal of the antibody binding to B7-H4 was recorded as the 100% signal of the antibody. Step two, epitope competition experiment: B7-H4 was captured using an SA sensor at a capture height of 0.25 nm. The sensor was immersed in a primary antibody (at a concentration of 100 nM) for 240 s, and then the SA sensor was immersed in a mixture of the primary and secondary antibodies (both at a final concentration of 100 nM) for 240 s, and the difference in signals after immersion of the sensor in the antibody mixture was recorded as the signal of the antibody as the secondary antibody. The inhibition rate was calculated according to the following formula: […]

[3] = molecular target: T2, B7-H4 (Acro Biosystems, #B74-H82E2); experiment: BLI epitope competition; 1st Ab = row; competitor (2nd Ab) Control antibody 1; inhibition of the 2nd Ab signal
Procedure: as §1

B1: Control antibody 1 (PR000157) (antibody, V domains shown)
VH: EVQLVQSGAEVKKPGASVKVSCKASGYTFTSYWIGWVRQAPGQGLEWIGDIYPGGGYTNYNEKFKGRVTITRDTSTSTAYLELSSLRSEDTAVYYCARLAGSSYRGAMDSWGQGTLVTVSS
VL: DIQMTQSPSSLSASVGDRVTITCKASQGFNKYVAWYQQKPGKAPKLLIYYTSTLQPGVPSRFSGSGSGRDYTLTISSLQPEDFATYYCLQYGDLLYAFGQGTKVEIKR
notes: Anti-B7H4 IgG1 control antibody from WO2016040724A1; also called 1D11.v1.9varC2
B1 was tested. Which EC50 [1] did it give?
The EC50 was 1.18 nM.

What about the “Maximum MFI” value [1] of the same binder?
Its value is 316000 MFI.

What about the “Competitive inhibition rate (%)” value [2] of the same binder?
The value was 94.6%.

And the “Competitive inhibition rate (%)” value [3]?
The value was 95.3%.

Source: patent publication US20230312722A1 (NONA BIOSCIENCES SUZHOU, published 2023)
